In article PMC11506342, “Ratiometric Electrochemical Detection of Interleukin-6 Using Electropolymerized Methylene Blue and a Multi-Walled Carbon-Nanotube-Modified Screen-Printed Carbon Electrode”:

Target: interleukin-6 (IL-6) (UniProt P05231 30-212)
Test: electrochemical aptasensor (DPV, [Fe(CN)6]3-/4- vs poly-methylene blue); aptamer immobilised on CS/MWCNT/pMB electrode, BSA blocked; 30 min incubation; linear 0.001-1000 ng/mL, LOD 0.54 pg/mL (not a Kd); 1 uM aptamer for immobilisation, IL-6 incubated 30 min with stirring; binding buffer, salt, pH and temperature not given in the material
Settings: protein: commercial; hairpin (stated)

Chain of interleukin-6 (IL-6) (P05231 30-212): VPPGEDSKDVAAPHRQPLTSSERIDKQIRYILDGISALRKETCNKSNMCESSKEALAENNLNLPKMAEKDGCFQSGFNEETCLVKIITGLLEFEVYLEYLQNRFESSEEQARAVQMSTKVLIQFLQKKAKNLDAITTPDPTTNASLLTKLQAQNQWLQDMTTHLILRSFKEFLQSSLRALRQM

GGTGGCAGGAGGACTATTTATTTGCTTTTCT (ssDNA, 3'-NH2) [IL-6 aptamer (NH2-Apt)]: binds.
